For the test, the target named is T1, 人CD20 (Raji细胞表面) (human, UniProt P11836 1-297).
T1 construct: whole, on cells; The target is native on the B lymphoma lines Raji (and Daudi); No recombinant CD20 was used; also called 高表达CD20的Raji细胞
T1 sequence (looked up): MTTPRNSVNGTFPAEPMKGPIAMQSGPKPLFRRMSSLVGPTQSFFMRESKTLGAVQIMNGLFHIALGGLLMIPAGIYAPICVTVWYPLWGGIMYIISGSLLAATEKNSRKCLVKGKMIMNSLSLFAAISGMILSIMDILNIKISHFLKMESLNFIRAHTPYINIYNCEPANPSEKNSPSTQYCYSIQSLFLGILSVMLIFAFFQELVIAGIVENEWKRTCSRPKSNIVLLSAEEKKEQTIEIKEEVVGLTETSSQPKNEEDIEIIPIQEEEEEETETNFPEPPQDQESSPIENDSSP
Put plainly: in vitro antigen binding assay, flow cytometry on Raji cells. For orientation: In flow cytometry, cells or beads pass a laser one at a time.

B1: 抗人CD20人源化抗体hu3D9 (hu3D9Hb/hu3D9Lb) (antibody, human IgG1, kappa, V domains shown)
VH: EVQLVESGGGLVQPGGSLRLSCAASGYTFTNYWMQWVRQAPGQGLEWISAIYPGDGDTRYTQKFKGRATLSADKSKNTAYLQMNSLRAEDTAVYYCAREGAYGYDDGMDYWGQGTLVTVSS
VL: DIVLTQSPSSLSASVGDRVTITCRASQSIRNNLHWYQQKPGKAPKLLIKYASQSISGVPSRFSGSGSGTDFTLTISSLQPEDFATYYCQQSNSWPLTFGQGTKVEIKR
notes: Humanised antibody with 12 mouse framework residues kept
As to B1, the binding result is reported as “binds”.

The values above are taken from patent CN102050878A (NAT ENGINEERING RES CT OF ANTIBODY MEDICINE SHANGHAI CO LTD, dated 2011).
